Assay results published in article PMC10069731 (2023).

Biological target: SARS-CoV-2 WT RBD (SARS-CoV-2, UniProt P0DTC2)
Assay: BLI

B1: rabbit monoclonal antibody (RmAb) 1H1, IgG (antibody, V domains shown)
VH: QSLEESGGDLVKPGASLTLTCTASGFSFSSGYDMCWVRQAPGKGLEWIACIGTGSSGNIYYASWAKGRFTISKTSSTTVTLQMTSLTAADTATYFCARDDADYAGPDYFNLWGPGTLVTVSS
VL: DIVMTQTPASVSEPVGGTVTIKCQASESISNWLAWYQQKPGQPPKLLIYAAFTLASGVPSRFKGSGSGTQFTLTINGVECADAATYYCQQTYSSRDVDNVFGGGTEVVVK
Binder B1 has a Kd of 0.0898 nM.
